Experimental data published in the supplement of paper PMC12042874.
± gives the uncertainty stated by the source.

Assay: amyloid nucleation score (Sup35N fusion, yeast selection) (log enrichment); library NNK1; higher = more nucleation; inactive = no reads after selection
Procedure, shortened: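 The nucleation score is a DiMSum log enrichment of output over input reads, centred on the mode score of non-aggregating sequences. Sequences under 100 input reads were excluded, and reads came from Illumina sequencing of plasmid inserts. Psi-negative yeast expressing Sup35N fused to peptides of 20 random codons were induced with 100 μM copper sulfate for 24 hours and grown 7 days at 30°C on medium lacking adenine and uracil. Random libraries had three technical output replicates.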

| Substance | amyloid nucleation score |
| --- | --- |
| GLIYTTSLMRVLNSVVGL | inactive |
| GLKRWSIGFRDGERQSCRVR | -0.523 ± 0.35 |
| GLLSK | -0.062 ± 0.56 |
| GLNLNRFWRLGATFILYLQT | 1.19 ± 0.54 |
| GLRLNITNSRGRPRETWRGR | 2.33 ± 0.24 |
| GLRVPPHDVLMSIARLDVSK | inactive |
| GLSQWGTVRCHTAASIYLAT | 0.316 ± 0.58 |
| GLTCMHPWWLSHAEKRLVEL | 1.05 ± 0.49 |
| GLYFGLQLTGVS | 0.04 ± 0.35 |
| GMAWSRSLRVGHSGIMGRAV | 0.189 ± 0.22 |
| GMFYVLVGENCCFYALVWTL | -0.223 ± 0.23 |
| GMHLVKQVQGYRVRAEYSLF | 0.98 ± 0.92 |
| GMMHFGCGFSFWWNNFRQWW | 2.49 ± 0.19 |
| GMSALYSGDVL | -0.118 ± 0.57 |
| GMSIE | -0.314 ± 0.8 |
| GMTLMVAEFGLIRLVNTLAI | 0.785 ± 0.49 |
| GMVFF | 0.643 ± 0.58 |
| GMWSTNANTPILVILRGVVM | 0.71 ± 1.1 |
| GNALRMVWERTQGTLPEYRR | 0.219 ± 0.59 |
| GNFMVW | -0.403 ± 0.58 |
| GNMSCPFVQRREVLLC | -0.383 ± 1.4 |
| GNVGYLGVSRYLHLC | -0.073 ± 0.41 |
| GNVRYAPYVVGIKLIRANSC | -0.381 ± 0.81 |
| GPFASVFCAYGRVGVM | 0.354 ± 0.68 |
| GPFHRWNL | -0.129 ± 1.6 |

| Substance | amyloid nucleation score |
| --- | --- |
| GPRAN | -1.55 ± 2.7 |
| GPSLWLKTMVKGYAKTGLYR | -0.219 ± 0.32 |
| GPSRRTLRGNFNHLVTYWCP | 0.003 ± 0.46 |
| GPTRLDAEG | -0.54 ± 0.87 |
| GRARVSIRSWSRSWSVGRVL | 0.309 ± 0.63 |
| GRDSIRCLNTTEASKLYGGL | 0.609 ± 0.64 |
| GREANILFLYLVLRTFFRMG | inactive |
| GRFRARIHCSPQARVTFVAS | -0.113 ± 0.71 |
| GRGSMLFW | 0.942 ± 0.58 |
| GRGWYGSRYARVVHFVWGYA | -0.487 ± 0.34 |
| GRLCPLRSKTSFNCY | -1.81 ± 1.3 |
| GRLISETNLAKSYSL | -0.187 ± 0.33 |
| GRMTILSVNSS | 0.328 ± 0.46 |
| GRRYELPGPSPYCVRDSGRR | -0.301 ± 0.65 |
| GRVVAHLNRRHR | 1.38 ± 0.43 |
| GSELCGVGARSQDSRIAGRV | -0.282 ± 0.49 |
| GSFHTQRTWAFVVVVEVHGK | 0.232 ± 0.41 |
| GSGINVRDITFIL | 4.42 ± 0.071 |
| GSHTGEFRYVF | -0.83 ± 0.42 |
| GSLKEMEKHPWKKATTYQYA | 1.47 ± 0.23 |
| GSMQQNSFREMEPRDSTGGA | -0.844 ± 0.94 |
| GSNIGQSFWYRRWVQQRTAE | -1.13 ± 2.7 |
| GSNPVVSLW | 0.076 ± 0.44 |
| GSQSEVVCGW | 1.14 ± 0.74 |
| GSRSHRSH | 0.751 ± 0.67 |

| Substance | amyloid nucleation score |
| --- | --- |
| GSSKNFH | 0.972 ± 0.43 |
| GSSLTPCFEWMIIRCVEEDG | 1.05 ± 0.79 |
| GSTSCK | 0.79 ± 0.43 |
| GSVAKRPVVKISRHPLCMVW | 0.364 ± 0.24 |
| GSYECFHHLYCGWQSLLWAN | 0.854 ± 0.39 |
| GTHEVLCNDHPCVYRHILRC | -0.753 ± 0.3 |
| GTLNMIFRFGMHAIVSYFWG | 0.024 ± 0.4 |
| GTLYWLHASV | 0.617 ± 0.47 |
| GTSKTTGERDWLRPMTRDI | -0.94 ± 2.7 |
| GTSSGLV | 0.104 ± 1.1 |
| GTSVN | 1.08 ± 0.17 |
| GTTHRDS | -0.263 ± 0.35 |
| GTVPNVRKYPCFLCSMRR | -1.28 ± 1.4 |
| GTVYWIYGGINLSAVLSSRS | 3.44 ± 0.1 |
| GTWNF | -0.023 ± 0.55 |
| GVAMCEEWRLMISE | 0.185 ± 0.74 |
| GVASNYPNHLVLNSR | -0.211 ± 0.34 |
| GVATPPLRANSLEG | inactive |
| GVDRVQCVFLSRVEWLGTPG | 0.198 ± 0.67 |
| GVESLLCYASPLVSWAIFAD | -0.424 ± 0.28 |
| GVFEPCRVRSFMHIVSIADR | -0.306 ± 1.7 |
| GVGNTRQRVFRVVHCLAMLQ | 0.634 ± 0.88 |
| GVIYS | 0.077 ± 0.28 |
| GVLILCVSAKSRSAAVKQLS | 0.755 ± 0.68 |
| GVLLGVTSFEFFMGTLEVAW | 0.188 ± 1 |

| Substance | amyloid nucleation score |
| --- | --- |
| GVMSTDPFLTLYTVLVGVLI | inactive |
| GVTSR | 1.25 ± 0.72 |
| GWCNMGGANVWKMQVTGPAE | 0.948 ± 0.58 |
| GWCYSDVVMLPF | -0.141 ± 0.34 |
| GWGLA | inactive |
| GWMYVSMLFGVG | -0.455 ± 1.7 |
| GWSIMVGQMASLLWCIRAGT | 0.116 ± 0.3 |
| GYEVKMHYSVLIINNSCPCL | 0.95 ± 0.25 |
| GYFDMFTKIVVL | 0.856 ± 0.45 |
| GYFYFRQIIQSDRPFIYNIP | -0.16 ± 0.38 |
| GYGSHNEAGKLGVGGEVCYG | 3.85 ± 0.065 |
| GYKGQCIIYSTVDSRN | 0.07 ± 0.35 |
| GYKRFYLLVKLYVFERINIA | -0.244 ± 0.31 |
| GYNNRRDFPLSMPCRH | -0.363 ± 0.88 |
| GYNVAFILHTTVKCVCVEM | 0.757 ± 0.41 |
| GYPGCHLFVSWTTVGPVFFY | 8.239 ± 0.047 |
| GYRCMHLWTRSPSFIRPVVS | 0.67 ± 0.97 |
| GYRCSWNDPMVNTVFFV | 0.98 ± 0.56 |
| GYSIDIP | inactive |
| GYSYTCPLS | -0.217 ± 0.36 |
| GYWPNKRWSRMKPIYPHSNV | 1.34 ± 0.18 |
| HAHVQCGESE | 0.092 ± 0.73 |
| HALTSDRYWKERPTIPRFRF | -0.174 ± 0.36 |
| HAVQLRYLKKKWGWYALCKR | 0.712 ± 0.72 |
| HCILHKANFRGFTHSSYEVG | 4.68 ± 0.1 |

| Substance | amyloid nucleation score |
| --- | --- |
| HCIWKMLNLFSSLRLSIKLI | -2.16 ± 2.4 |
| HCLSNCSSRVGGFSFNAPVA | 0.5 ± 0.45 |
| HCNIMIDSTSLFNGGLVFYN | 4.83 ± 0.059 |
| HCNSNVTWKV | 0.414 ± 0.63 |
| HCQVQHLTQFMWVIVMRTRD | 3.5 ± 0.14 |
| HCVRQTSWMLAENLAWEVWL | 1.1 ± 0.58 |
| HCYRITYKRSNRDVL | 1.76 ± 0.36 |
| HDFRFIGSWHLTYGPSVTTT | -0.471 ± 0.49 |
| HDICTLWILSAL | 0.602 ± 0.78 |
| HDSNHFLRDLLVILRYYEAV | inactive |
| HEKVV | 0.292 ± 0.32 |
| HFGWNLGPMHTMKSSV | 0.464 ± 0.49 |
| HFICKLND | 0.354 ± 0.34 |
| HFKAYAFLDPFPLAPKL | 0.463 ± 0.64 |
| HFMWAYRCSDYDLM | 2.01 ± 0.11 |
| HFQKYKELVVSKHN | 0.743 ± 1.1 |
| HFTIKF | 1.06 ± 0.27 |
| HFYSRYRTPQTRS | -0.549 ± 0.64 |
| HGALMNNWDLKACFC | -0.786 ± 0.41 |
| HGAMLSSM | -2.06 ± 2.4 |
| HGFNPNWGSRVKGSMVRV | -0.044 ± 0.47 |
| HGLNVTLDVHGESYLHIYVW | -0.036 ± 0.62 |
| HGNYTHQMTPAELFLRHMRF | -0.991 ± 2.4 |
| HHRVCSMKWSNCYELNVMGE | -0.429 ± 0.28 |
| HHSVGSYRINCLV | 3.39 ± 0.089 |

| Substance | amyloid nucleation score |
| --- | --- |
| HHVAVSLDANLNFFTLWLER | 3.81 ± 0.12 |
| HIFCRVIPLHMYKLADNW | 0.841 ± 0.8 |
| HIQRYMWKGGLEFVLIVRRA | 1.2 ± 0.4 |
| HIYNDSVRSFWIFQ | 6.606 ± 0.05 |
| HIYSF | 1.26 ± 0.12 |
| HKHRKPSLNRVPGVGW | -0.78 ± 0.43 |
| HKNLQIVTFFVEYVSETPPG | -1.05 ± 1 |
| HLECFRLRLPFTNCDVYVRS | 0.845 ± 0.54 |
| HLGSNFKISAGAINVRLSHR | 4.76 ± 0.1 |
| HLHLGCWW | 3.31 ± 0.14 |
| HLKGHFEGWGLIICVSSGFD | 2.08 ± 0.14 |
| HLLALFTSFVTITPW | -0.986 ± 0.88 |
| HLSVMMGFGFRTFNMIVMVC | 1.05 ± 0.26 |
| HLWHSGPFVRMCCATFIFLA | 0.49 ± 0.75 |
| HLYTVTHGSLNDKTGRP | 0.31 ± 0.97 |
| HMADTRVADCSQLLR | 0.409 ± 0.81 |
| HMWYFRYGHEWSRTYNKCIK | -0.02 ± 0.72 |
| HNKCSFLYMSQYARHRMYSS | 0.218 ± 0.5 |
| HNLLM | inactive |
| HNSHRWYMGGTNVGVSCI | 0.456 ± 0.93 |
| HNSRWTRFRHLCSYITYGGC | -0.396 ± 0.58 |
| HPHVMLGILGHN | 0.752 ± 0.85 |
| HPIGSDSPHSVFMVSCVSLQ | 1.68 ± 0.28 |
| HPLRLYRKSISINVVLSSCL | 0.733 ± 0.88 |
| HQTCCLWSTVVLGV | 3.04 ± 0.15 |

| Substance | amyloid nucleation score |
| --- | --- |
| HQVVNNGTWGEQYIWMLSAC | 0.442 ± 0.46 |
| HRFSCG | inactive |
| HRISASTLCVIMALRFTSWR | 1.42 ± 0.44 |
| HRKTSPISENQVY | -0.59 ± 0.27 |
| HRPDIHFVVPVTAP | -0.619 ± 0.4 |
| HRQTNKGEHIQDHAAMLVFR | -0.18 ± 0.63 |
| HRSCCNKRRRERNFSDWTGV | 0.542 ± 0.77 |
| HRWTLMEVYITGIALKYVVY | -0.58 ± 0.76 |
| HSGQYCSAHPGFVK | -0.49 ± 0.5 |
| HSMLI | 0.539 ± 0.61 |
| HSSNAAFCYAVTIYLQVLLV | 0.837 ± 0.66 |
| HSSPLGLLWGAPARRRYCRR | -0.32 ± 0.87 |
| HSTCLPNTIQTLRRRALSCR | -1.22 ± 1.9 |
| HSVLVVSVVHCGFKQKRNK | 3.98 ± 0.15 |
| HSVVLILCLAL | 0.057 ± 1.2 |
| HSVYL | 1.24 ± 0.3 |
| HTKDSGSVARCVVSNLSCNT | 1.09 ± 0.48 |
| HTRIADGPAC | 0.018 ± 0.21 |
| HTRNVKTLRVKHSIDVPFLP | 1.41 ± 0.74 |
| HTRRTEFHAGYYRINTAYAV | 0.268 ± 0.7 |
| HTSFGVCVSVICFVLRWAYH | inactive |
| HTWMSLRGVAFTCQ | -0.13 ± 0.3 |
| HTWNPDYVAECFKEFKRLYK | 0.393 ± 0.61 |
| HVDDIWWTTFMYFPRCHLHV | 0.858 ± 0.57 |
| HVDKFLG | -0.025 ± 0.6 |
